Experimental data published in FireProtDB (doi:10.1021/bi061295h).
Several values for one entry are separate records, joined by “and”; a condition that tells them apart may be missing. Equal entries are not always repeated.

Conditions: 25 °C, reversible: Yes, whole UniProt chain shown
[1] = Bos taurus, pH 7.4, GdnHCl, CD, Tris 20 mM
[2] = Rattus norvegicus, pH 7.5, Urea, Fluorescence, Sodium phosphate 20 mM, KCl 100 mM

Protein	denaturant m value [1] [kcal/mol/M]	unfolding free energy [1] [kcal/mol]	denaturant m value (Bos taurus, pH 7.4, GdnHCl, SUPREX, Sodium phosphate 20 mM) [kcal/mol/M]	denaturant m value [2] [kcal/mol/M]	unfolding free energy [2] [kcal/mol]	denaturant m value (Rattus norvegicus, pH 7.5, Urea, SUPREX, Sodium phosphate 20 mM, KCl 100 mM)
Alpha-lactalbumin wild type, P00711 (protein) MMSFVSLLLVGILFHATQAEQLTKCEVFRELKDLKGYGGVSLPEWVCTTFHTSGYDTQAIVQNNDSTEYGLFQINNKIWCKDDQNPHSSNICNISCDKFLDDDLTDDIMCVKKILDKVGINYWLAHKALCSEKLDQWLCEKL	1.4	3	1.6	–	–	–
Fatty acid-binding protein, intestinal wild type, P02693 (protein) MAFDGTWKVDRNENYEKFMEKMGINVVKRKLGAHDNLKLTITQEGNKFTVKESSNFRNIDVVFELGVDFAYSLADGTELTGTWTMEGNKLVGKFKRVDNGKELIAVREISGNELIQTYTYEGVEAKRIFKKE	–	–	–	1.7	9.2	1 kcal/mol/M and 2.7 kcal/mol/M and 0.9 kcal/mol/M
